± gives the uncertainty stated by the source.
B1: Pyruvate dehydrogenase protein X component, mitochondrial, residues 181 to 227; numbered along this chain, O00330 (parent)
chain: RFRLSPAARNILEKHSLDASQGTATGPRGIFTKEDALKLVQLKQTGK

Variants of: B1
Test: abundance fitness (aPCA) (normalised: wild type 0, dead -1); higher = more abundant; growth selection in yeast, the domain comes from the species named
Details: Homo sapiens

Abundance fitness, by site and new letter:
H15: P -0.575 ± 0.072, K -0.42 ± 0.085, W -0.191 ± 0.082, I -0.906 ± 0.16
K14: Q 0 ± 0.075, T 0.049 ± 0.05, N -0.05 ± 0.073, Y -0.3 ± 0.1, W -0.474 ± 0.064, A 0.008 ± 0.064, P -0.055 ± 0.081
N10: E 0.439 ± 0.074, L 0.064 ± 0.048, H -0.086 ± 0.058, K -0.014 ± 0.079, T 0.002 ± 0.048, A 0.063 ± 0.048, G -0.058 ± 0.046, P -0.163 ± 0.069
R9: G -0.152 ± 0.042, A -0.135 ± 0.063, H -0.252 ± 0.092, C -0.924 ± 0.12, Q -0.05 ± 0.079, I -0.137 ± 0.056, S -0.272 ± 0.053, M -0.251 ± 0.074
G26: D -0.444 ± 0.056, Q -0.483 ± 0.077, A -0.603 ± 0.056, C -0.903 ± 0.12, H -0.46 ± 0.043, Y -0.8 ± 0.17, F -0.642 ± 0.081
T32: I -0.965 ± 0.21, A -0.462 ± 0.087, R -0.698 ± 0.094, L -0.553 ± 0.097, W -0.716 ± 0.071, N -0.733 ± 0.18, M -0.947 ± 0.12, H -0.389 ± 0.045, V -0.637 ± 0.053, Y -1.12 ± 0.2
R28: T -0.281 ± 0.063, Q -0.314 ± 0.11, I -0.936 ± 0.15, K 0.033 ± 0.071, P -0.408 ± 0.096, C -0.072 ± 0.051, H -0.202 ± 0.11, E 0.06 ± 0.09, L -0.161 ± 0.045, N 0.285 ± 0.088
A7: P -0.697 ± 0.082, W -0.98 ± 0.13, I -0.263 ± 0.099, M -0.396 ± 0.095
S20: R -0.284 ± 0.047, C -0.305 ± 0.094, I -0.655 ± 0.17, M -0.18 ± 0.075, V -0.369 ± 0.043, W -0.788 ± 0.075
G29: V -0.807 ± 0.067, R -0.526 ± 0.052, I -0.349 ± 0.11, E -0.226 ± 0.063, P -0.569 ± 0.071, W -0.892 ± 0.057
P6: H -0.367 ± 0.087, N -0.053 ± 0.076, M -0.23 ± 0.094, R 0.038 ± 0.046, T -0.093 ± 0.073
A36: V -0.823 ± 0.057, L -0.756 ± 0.093, C -0.339 ± 0.11, H -0.562 ± 0.14, P -0.908 ± 0.31, D -0.262 ± 0.088, E -0.317 ± 0.093, N -0.428 ± 0.18, S -0.512 ± 0.12
